# Assay results reported in doi:10.1101/2024.05.27.596091.
# Read-outs that look alike come from different tables or passages of the source.
# Tests used:
# αβ-tubulin (bovine) [1] = target: αβ-tubulin (bovine) (UniProt Q6B856); assay: co-sedimentation
# αβ-tubulin (bovine) [2] = target: αβ-tubulin (bovine) (UniProt Q6B856); assay: co-sedimentation; remark: listed apart in the source
substance,measurement,setting,value
αβ-tubulin (from UniProt Q6B856 1-445) (complex),critical concentration for spontaneous nucleation,αβ-tubulin (bovine) [1],3.9 µM
same,critical concentration for spontaneous nucleation,αβ-tubulin (bovine) [2],20.7 µM
